ENPP3 Receptor Density - Antibody Binding capacity (ABC) data for one substance are collected here from US20250163182A1.

Bounds are passed on as bounds.

The target of assay [1] is human ENPP3 on cells (human) (UniProt O14638). Kind of assay: flow cytometry receptor quantification on KMRC20 cells. (In flow cytometry, cells or beads pass a laser one at a time.)
Assay [2] has the same target. Kind of assay: flow cytometry receptor quantification on 786-O cells.
For assay [3] the target is unchanged. Description: flow cytometry receptor quantification on TUHR4TKB cells (Table 18 of the text prints this value under a second TUHR10TKB row).
For assay [4] the target is unchanged. Description: flow cytometry receptor quantification on CHO-K1 ENPP3-OE cells; bar above the ULOD line.
Assay [5] shares this target. Kind of assay: flow cytometry receptor quantification on Hep3B cells.
For assay [6] the target is unchanged. Description: flow cytometry receptor quantification on HUH-7 cells.
The target is the same in assay [7]. Description: flow cytometry receptor quantification on ACHN cells.

human ENPP3 on cells (human), sequence (O14638 whole entry): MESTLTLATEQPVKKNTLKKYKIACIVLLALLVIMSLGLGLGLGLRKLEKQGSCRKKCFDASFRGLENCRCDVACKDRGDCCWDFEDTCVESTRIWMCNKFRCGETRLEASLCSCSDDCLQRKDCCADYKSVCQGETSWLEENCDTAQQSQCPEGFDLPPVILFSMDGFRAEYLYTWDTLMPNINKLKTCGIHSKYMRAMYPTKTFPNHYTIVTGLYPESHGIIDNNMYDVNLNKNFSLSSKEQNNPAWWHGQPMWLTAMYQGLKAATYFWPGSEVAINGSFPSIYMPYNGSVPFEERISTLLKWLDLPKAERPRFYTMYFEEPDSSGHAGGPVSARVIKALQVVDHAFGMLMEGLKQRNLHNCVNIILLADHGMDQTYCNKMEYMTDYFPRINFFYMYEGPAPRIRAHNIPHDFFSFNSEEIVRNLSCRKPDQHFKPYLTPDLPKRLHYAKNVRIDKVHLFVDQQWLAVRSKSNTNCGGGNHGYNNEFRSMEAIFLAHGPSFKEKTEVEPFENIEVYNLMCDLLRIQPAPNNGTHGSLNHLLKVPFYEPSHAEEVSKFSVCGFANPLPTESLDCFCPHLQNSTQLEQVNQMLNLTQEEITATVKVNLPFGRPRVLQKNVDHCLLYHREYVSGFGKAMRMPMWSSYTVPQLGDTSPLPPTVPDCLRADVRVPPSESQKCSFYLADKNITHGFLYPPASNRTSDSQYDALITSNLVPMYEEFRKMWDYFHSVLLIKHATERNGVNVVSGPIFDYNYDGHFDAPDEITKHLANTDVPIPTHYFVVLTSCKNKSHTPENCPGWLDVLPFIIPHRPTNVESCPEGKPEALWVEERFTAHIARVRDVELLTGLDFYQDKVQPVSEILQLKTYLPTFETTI

Take commercial ENPP3 antibody clone NP4D6: the ENPP3 Receptor Density - Antibody Binding capacity (ABC) in assay [1] is 21000 ABC; in assay [2] it was 4000 ABC; in assay [3] it was 61000 ABC; in assay [4] it was above 470000 ABC; in assay [5] it was 13000 ABC; in assay [6] it was 7000 ABC. This substance had an ENPP3 Receptor Density - Antibody Binding capacity (ABC) in assay [7] of 5000 ABC.
